In assay [1] the target is T1, Purified human GUCY2c ECD (recombinant, construct not stated) (human, UniProt P25092 24-430).
T1 construct: also called recombinant human GUCY2c; recombinant GUCY2c protein
As to the kind of experiment: ELISA; column 'Direct huGUCY2C binding (nM)'. On the technique in general: In an ELISA, binding on a coated surface is turned into a signal by an enzyme label.

In assay [2] the target is T2, Human GUCY2C ECD-muIgG2a (human).
T2 construct: also called human GUCY2c ECD-mouse IgG2a Fc fusion protein; huGUCY2c-mIgG2a
T2 sequence (chain, as listed by the source limits assumed): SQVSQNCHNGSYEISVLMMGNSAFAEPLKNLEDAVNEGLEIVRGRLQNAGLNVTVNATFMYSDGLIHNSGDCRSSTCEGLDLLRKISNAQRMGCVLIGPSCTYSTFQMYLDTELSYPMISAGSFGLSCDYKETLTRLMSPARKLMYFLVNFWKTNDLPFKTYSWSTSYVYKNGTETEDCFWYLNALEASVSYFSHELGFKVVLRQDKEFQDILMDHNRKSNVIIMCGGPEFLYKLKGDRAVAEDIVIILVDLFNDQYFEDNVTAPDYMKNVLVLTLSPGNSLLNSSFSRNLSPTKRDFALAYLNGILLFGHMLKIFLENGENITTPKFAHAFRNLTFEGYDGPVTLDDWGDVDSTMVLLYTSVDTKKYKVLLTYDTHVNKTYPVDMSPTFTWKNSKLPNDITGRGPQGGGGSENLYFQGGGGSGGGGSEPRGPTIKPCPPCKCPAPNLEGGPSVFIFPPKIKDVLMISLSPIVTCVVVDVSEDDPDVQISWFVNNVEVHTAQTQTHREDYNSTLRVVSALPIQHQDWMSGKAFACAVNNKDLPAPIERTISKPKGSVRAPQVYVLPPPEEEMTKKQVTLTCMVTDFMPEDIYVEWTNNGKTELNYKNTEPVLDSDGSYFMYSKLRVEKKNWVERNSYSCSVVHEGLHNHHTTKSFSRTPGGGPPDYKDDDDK
As to the kind of experiment: sandwich ELISA: CD3 epsilon-delta coated, GUCY2c ECD-mIgG2a Fc in solution.

Assay [3] concerns the target T3, Human CD3 epsilon-delta (human).
T3 construct: Single-chain epsilon-linker-delta with His6; also called huCD3
T3 chain: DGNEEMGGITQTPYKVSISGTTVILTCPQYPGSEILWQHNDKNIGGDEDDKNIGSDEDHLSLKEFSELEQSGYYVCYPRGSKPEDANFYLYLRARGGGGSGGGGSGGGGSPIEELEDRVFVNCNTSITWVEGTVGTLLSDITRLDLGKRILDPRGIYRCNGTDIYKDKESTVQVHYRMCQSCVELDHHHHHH
As to the kind of experiment: SPR, anti-human IgG capture, 25 C.

The target in assay [4] is T3, Human CD3 epsilon-delta. As to the kind of experiment: direct ELISA, coated CD3 epsilon-delta.
In assay [5] the target is T4, Murine GUCY2C-ECD cleaved (mouse, UniProt Q3UWA6 20-433).
T4 sequence: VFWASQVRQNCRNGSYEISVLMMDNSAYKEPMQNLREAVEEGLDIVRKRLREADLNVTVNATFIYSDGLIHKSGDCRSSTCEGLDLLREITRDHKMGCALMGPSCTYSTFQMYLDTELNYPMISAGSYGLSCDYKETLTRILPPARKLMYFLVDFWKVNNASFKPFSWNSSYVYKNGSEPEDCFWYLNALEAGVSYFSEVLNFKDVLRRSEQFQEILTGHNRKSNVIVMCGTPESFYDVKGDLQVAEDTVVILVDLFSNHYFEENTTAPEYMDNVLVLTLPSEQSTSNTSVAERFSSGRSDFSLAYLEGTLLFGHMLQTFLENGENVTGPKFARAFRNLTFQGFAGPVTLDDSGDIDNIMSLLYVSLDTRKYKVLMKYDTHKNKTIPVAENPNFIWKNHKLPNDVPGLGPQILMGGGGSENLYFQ
As to the kind of experiment: SPR, anti-human IgG capture, 25 C. For orientation: Surface plasmon resonance follows binding to a sensor surface in real time, without labels.

In assay [6] the target is T1, Purified human GUCY2c ECD (recombinant, …). As to the kind of experiment: direct ELISA, coated GUCY2c ECD.
The target of assay [7] is T5, Cynomolgus CD3 epsilon-delta (cynomolgus).
T5 chain: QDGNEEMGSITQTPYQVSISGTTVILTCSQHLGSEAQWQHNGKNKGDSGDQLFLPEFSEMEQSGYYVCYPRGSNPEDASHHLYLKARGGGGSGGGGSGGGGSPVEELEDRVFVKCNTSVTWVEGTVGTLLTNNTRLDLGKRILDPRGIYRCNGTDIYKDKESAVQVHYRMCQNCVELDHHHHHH
As to the kind of experiment: SPR, printed anti-His capture, 25 C (Table 33D).

Assay [8] deals with T6, Human GUCY2C full length (SEQ ID NO: 224), recombinant protein (human, UniProt P25092 24-430, limits assumed).
T6 construct: also called huGUCY2C; biotinylated human GUCY2c
T6 sequence (P25092 24-430 F281L limits assumed): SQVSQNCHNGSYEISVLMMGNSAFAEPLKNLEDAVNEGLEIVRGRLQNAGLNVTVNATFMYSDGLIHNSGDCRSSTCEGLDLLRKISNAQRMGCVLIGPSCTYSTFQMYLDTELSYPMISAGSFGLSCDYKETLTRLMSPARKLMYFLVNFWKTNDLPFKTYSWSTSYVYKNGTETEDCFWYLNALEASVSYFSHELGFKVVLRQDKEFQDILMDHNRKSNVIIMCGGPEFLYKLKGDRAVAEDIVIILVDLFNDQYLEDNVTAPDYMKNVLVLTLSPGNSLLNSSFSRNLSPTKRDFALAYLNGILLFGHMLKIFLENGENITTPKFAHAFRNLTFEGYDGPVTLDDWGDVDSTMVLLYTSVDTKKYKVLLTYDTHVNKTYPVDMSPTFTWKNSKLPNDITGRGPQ
As to the kind of experiment: SPR, anti-human IgG capture, 25 C.

Assay [9] addresses Human GUCY2c on tumor cells (T84, HT55) (human, UniProt P25092 24-1073). As to the kind of experiment: cell-based or functional assay.
For assay [10], the target named is T7, Cynomolgus GUCY2C-ECD Cleaved (cynomolgus, UniProt P25092 24-430 (human entry)).
T7 construct: also called CyGUCY2C
T7 chain: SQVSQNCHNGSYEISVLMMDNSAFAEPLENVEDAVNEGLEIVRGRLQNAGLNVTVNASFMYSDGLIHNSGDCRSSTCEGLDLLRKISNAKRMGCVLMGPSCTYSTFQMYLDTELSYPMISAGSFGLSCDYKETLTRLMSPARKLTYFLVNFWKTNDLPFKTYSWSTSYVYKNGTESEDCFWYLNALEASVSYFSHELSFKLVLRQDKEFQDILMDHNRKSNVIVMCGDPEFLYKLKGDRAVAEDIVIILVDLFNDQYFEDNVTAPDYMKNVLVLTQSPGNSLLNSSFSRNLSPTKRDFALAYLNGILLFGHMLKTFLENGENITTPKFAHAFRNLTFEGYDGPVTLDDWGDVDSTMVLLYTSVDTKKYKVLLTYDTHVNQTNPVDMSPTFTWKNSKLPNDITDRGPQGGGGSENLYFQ
As to the kind of experiment: SPR, anti-human IgG capture, 25 C.

Experimental findings from patent US20230340151A1 (Pfizer, published 2023) are described below.

T1 sequence (P25092 24-430 limits assumed): as the sequence (P25092 24-430 F281L limits assumed) above, with L258F counted along it
Sequence of Human GUCY2c on tumor cells (T84, HT55) (P25092 24-1073 limits assumed): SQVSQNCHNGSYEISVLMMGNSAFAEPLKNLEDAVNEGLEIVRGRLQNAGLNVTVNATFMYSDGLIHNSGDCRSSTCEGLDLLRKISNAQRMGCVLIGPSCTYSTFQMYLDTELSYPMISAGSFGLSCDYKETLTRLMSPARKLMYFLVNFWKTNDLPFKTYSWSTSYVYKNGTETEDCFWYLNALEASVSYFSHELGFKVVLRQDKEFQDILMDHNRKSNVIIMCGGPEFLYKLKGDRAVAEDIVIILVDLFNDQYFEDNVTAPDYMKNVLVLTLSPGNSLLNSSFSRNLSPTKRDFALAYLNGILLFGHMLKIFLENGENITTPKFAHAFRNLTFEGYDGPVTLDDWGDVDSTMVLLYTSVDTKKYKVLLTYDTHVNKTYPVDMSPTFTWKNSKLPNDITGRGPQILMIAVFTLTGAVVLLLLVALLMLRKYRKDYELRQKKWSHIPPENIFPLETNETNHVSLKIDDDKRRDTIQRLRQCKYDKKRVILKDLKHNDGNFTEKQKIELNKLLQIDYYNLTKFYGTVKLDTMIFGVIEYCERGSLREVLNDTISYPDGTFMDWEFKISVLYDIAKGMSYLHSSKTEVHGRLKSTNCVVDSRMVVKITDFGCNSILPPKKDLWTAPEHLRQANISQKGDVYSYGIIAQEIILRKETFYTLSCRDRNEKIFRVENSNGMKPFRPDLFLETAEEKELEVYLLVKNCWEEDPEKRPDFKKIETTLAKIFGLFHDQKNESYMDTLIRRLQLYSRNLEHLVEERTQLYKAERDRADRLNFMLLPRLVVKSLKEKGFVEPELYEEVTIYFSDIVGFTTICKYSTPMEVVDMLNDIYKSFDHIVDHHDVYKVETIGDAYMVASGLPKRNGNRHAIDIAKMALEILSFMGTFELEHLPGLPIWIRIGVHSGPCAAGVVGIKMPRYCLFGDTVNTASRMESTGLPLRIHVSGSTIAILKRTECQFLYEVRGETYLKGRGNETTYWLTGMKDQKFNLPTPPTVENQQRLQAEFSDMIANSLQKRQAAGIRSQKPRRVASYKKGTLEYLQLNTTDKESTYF

B1: GUCY2C-0193 (antibody, human IgG1, V domains shown)
VH: EVQLVESGGGLVQPGGSLRLSCAASGYTFTSYWMHWVRQAPGKGLEWIGEIKPSNGLTNYIEKFKNRFTISVDKAKNSAYLQMNSLRAEDTAVYYCTRTITTTEGYWFFDVWGQGTLVTVSS
VL: DIQMTQSPSSLSASVGDRVTITCRASESVDYYGTSLMQWYQQKPGKAPKLLIYAASNVESGVPSRFSGSGSGTDFTLTISSLQPEDFATYYCQQTRKVYTFGQGTKLEIK
For the molecule B1, in [1], the EC50 (as a rule, the midpoint of the concentration-response curve) was found to be 0.23 nM.

B2: GUCY2C-0074 (bispecific antibody)
chain 1: DIVLTQSPASLAVSLGQRATISCRASESVDNYGISFMNWFQQKPGQPPKLLIYAASNPGSGVPARFSGSGSGTDFSLNIHPLEEDDTAMFFCQQSKEVPYTFGGGTKLEIKGGGSGGGGEVQLVESGGGLVQPGGSLRLSCAASGFTFSDYYMTWVRQAPGKGLEWVAFIRNRARGYTSDHNPSVKGRFTISRDNAKNSLYLQMNSLRAEDTAVYYCARDRPSYYVLDYWGQGTTVTVSSGCPPCPAPEAAGAPSVFLFPPKPKDTLMISRTPEVTCVVVDVSHEDPEVKFNWYVDGVEVHNAKTKPREEQYNSTYRVVSVLTVLHQDWLNGKEYKCKVSNKALPAPIEKTISKAKGQPREPQVCTLPPSREEMTKNQVSLWCLVKGFYPSDIAVEWESNGQPENNYKTTPPVLDSDGSFFLYSKLTVDKSRWQQGNVFSCSVMHEALHNHYTQKSLSLSPG
chain 2: DIVMTQSPDSLAVSLGERATINCKSSQSLFNVRSRKNYLAWYQQKPGQPPKLLISWASTRESGVPDRFSGSGSGTDFTLTISSLQAEDVAVYYCKQSYDLFTFGSGTKLEIKGGGSGGGGEVQLQQSGAELARPGASVNLSCKASGYTFTTYWMQWVKQRPGQGLEWIGAIYPGDGMTTYTQKFKDKATLTADKSSSTAYMQLSSLASEDSAVYYCVRKGMDYWGQGTSVTVSSGCPPCPAPEAAGAPSVFLFPPKPKDTLMISRTPEVTCVVVDVSHEDPEVKFNWYVDGVEVHNAKTKPREEQYNSTYRVVSVLTVLHQDWLNGKEYKCKVSNKALPAPIEKTISKAKGQPREPQVYTLPPCREEMTKNQVSLSCAVKGFYPSDIAVEWESNGQPENNYKTTPPVLDSDGSFFLVSKLTVDKSRWQQGNVFSCSVMHEALHNHYTQKSLSLSPG
notes: chimeric CD3-GUCY2c diabody-Fc, CD3-0004
Regarding B2, the figures for the EC50 in assay [2], in assay [4] and in assay [6] were 4.05 nM, 1.13 nM and more than 100 nM, respectively. Further, the Kd (commonly a measure of binding affinity in units of concentration) in assay [3] worked out at 2.17 nM; in assay [5], 191 nM; in assay [7], 2.64 nM; in [8], 45.4 nM; in [10] it was 60.4 nM. In addition, the koff (commonly a measure of how fast the partners let go of each other) in assay [3] worked out at 0.000861 s⁻¹; in assay [5], 0.00282 s⁻¹; in assay [7] it was 0.00112 s⁻¹; in assay [8], 0.002 s⁻¹; in assay [10] it was 0.00284 s⁻¹. Besides, the kon (as a rule, the rate constant with which the complex forms) in assay [3] stood at 471000 M⁻¹ s⁻¹; in assay [5], 14800 M⁻¹ s⁻¹; in assay [7], 425000 M⁻¹ s⁻¹; in assay [8], 44100 M⁻¹ s⁻¹; in [10], 47300 M⁻¹ s⁻¹. In addition, the “T84 tumor cell EC50 (T cell cytotoxicity, E:T 10:1)” value in [9] worked out at 2.6 nM.

B3: GUCY2C-0179 (antibody, human IgG1, V domains shown)
VH: EVQLVESGGGLVQPGGSLRLSCAASGYSFTDYIMLWVRQAPGKGLEWIGNSNPYYGSTSYNLKFKGRFTISVDKAKNSAYLQMNSLRAEDTAVYYCARSGYYGSSPYWYFDVWGQGTMVTVSS
VL: DIQMTQSPSSLSASVGDRVTITCKSSQSLLYSSNQKNYLAWYQQKPGKSPKLLIYWASTRESGVPSRFSGSGSGTDFTLTISSLQPEDFATYYCQQYYSYPTFGGGTKVEIK
In the case of B3, in assay [1], the EC50 is 5.14 nM.

B4: GUCY2C-0166 (antibody, human IgG1, V domains shown)
VH: EVQLVESGGGLVQPGGSLRLSCAASGYTFTTYWMQWVRQAPGKGLEWIGAIYPGDGMTTYTQKFKDRFTISADKAKNSAYLQMNSLRAEDTAVYYCVRKGMDYWGQGTLVTVSS
VL: DIQLTQSPSSLSASVGDRVTITCRASESVDNYGISFMNWFQQKPGKAPKLLIYAASNPGSGVPSRFSGSGSGTDFTLTISSLQPEDFATYYCQQSKEVPYTFGQGTKLEIK
notes: human IgG1
As for B4, in [1], the EC50 came out at 0.0693 nM.
